Data from the supplement of paper PMC9732359.
± gives the uncertainty stated by the source.

Assay: protein stability index of a GFP-peptide fusion (yeast GPS) (PSI 1-4); higher = more stable; sorted into four equal gates, so the index is relative within each strain
How it was run: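 Plasmids in a pooled yeast library fused tiled 17-residue yeast protein peptides downstream of GFP and also expressed Cherry. Mid-log cultures grown without leucine were sorted into four equal gates by GFP/Cherry fluorescence ratio. Each gate's plasmids were PCR-amplified and Illumina-sequenced, and reads were matched to strains by barcodes. The protein stability index is derived by multiplying each gate's read frequency by its gate number and summing the results.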

Row | Sequence | protein stability index (doa10∆) | protein stability index (pdr5∆) | protein stability index (san1∆) | protein stability index (ubr1∆)
1 | PTRYVLIRNVGTNTYRL [POP1] | 1.97 ± 0.29 | 1.32 ± 0.23 | 1.12 ± 0.28 | –
2 | MTTWRKLYTKELSVTGS [YMR129W/POM152] | 2.06 ± 0.078 | 1.34 ± 0.072 | 1.41 ± 0.14 | 1.14 ± 0.04
3 | KWDITTRNSNNLAIVEL [BRR2] | 3.16 ± 0.071 | 2.83 ± 0.059 | 3.21 ± 0.051 | 3.54 ± 0.064
4 | FQALDSEETQFKYVEDR [ITC1] | 2.88 ± 0.097 | 3.44 ± 0.12 | 3.06 ± 0.069 | 3.45 ± 0.14
5 | PNFLIMQGKITKVLNMK [SMC2] | 2.73 ± 0.1 | 2.86 ± 0.07 | 2.85 ± 0.055 | 2.88 ± 0.063
6 | NNRSVSMQTIAETIILS [SRB5] | 2.02 ± 0.052 | 1.91 ± 0.068 | 1.56 ± 0.07 | 1.84 ± 0.031
7 | IFCIDLEVFHHFFKWIE [SRB8] | 1.25 ± 0.092 | 1.64 ± 0.16 | 1.38 ± 0.14 | –
8 | RQQYYSGVQVGGVGSMG [SNF6] | 2.08 ± 0.068 | 2.44 ± 0.11 | 2.19 ± 0.094 | 2.24 ± 0.056
9 | IKAPTVAADGKLVTYIV [YLR335W/NUP2] | 1.61 ± 0.07 | 1.92 ± 0.059 | 1.55 ± 0.084 | 2.16 ± 0.048
10 | MLCTADTPEGEACGLVK [RET1] | 1.47 ± 0.1 | 1.77 ± 0.14 | – | –
11 | PRKLVLSSGENRYAFSQ [SMC4] | 1.39 ± 0.08 | 1.56 ± 0.058 | 1.72 ± 0.086 | 1.59 ± 0.054
12 | TKAQQKTAEQIAAERAA [RPL7B] | 2.81 ± 0.17 | – | 3.07 ± 0.13 | –
13 | IVRPAKGVATTREKVLE [RRP46] | 3.43 ± 0.16 | 2.83 ± 0.1 | 2.21 ± 0.12 | 3.09 ± 0.082
14 | AMLNLINDNNTRPYILE [YCG1] | 3.22 ± 0.11 | 3.35 ± 0.15 | 3.08 ± 0.11 | 3.23 ± 0.19
15 | SRRLMKSLEDLSCQYDN [RPO31] | 2.04 ± 0.11 | 1.42 ± 0.17 | 1.36 ± 0.2 | 1.27 ± 0.085
16 | GIFNLLNTLFNPVTLNE [NUT1] | 2.52 ± 0.051 | 1.93 ± 0.052 | 1.87 ± 0.075 | 1.92 ± 0.048
17 | GVKDCQEGLITTTMLQL [SSN2] | 2.46 ± 0.083 | 2.5 ± 0.1 | 2.74 ± 0.079 | 2.6 ± 0.052
18 | SFLGEAKSMAFLKEVLS [YML103C/NUP188] | – | – | 2.48 ± 0.18 | 2.54 ± 0.21
19 | ALEDEERDEILTLTDSQ [BRR2] | 3.09 ± 0.13 | 3.25 ± 0.14 | 3.23 ± 0.088 | 3.12 ± 0.16
20 | NANRVFRTRFQDGTSVV [SMC2] | 2.74 ± 0.16 | 1.29 ± 0.1 | 2.31 ± 0.26 | 2.34 ± 0.085
21 | PFTASQSNINTNAPLRT [YIL149C/MLP2] | 2.37 ± 0.12 | 2.49 ± 0.089 | 2.11 ± 0.075 | 2.08 ± 0.053
22 | KISLLRPSFQNNRISNA [SWP82] | 2.46 ± 0.042 | 2.37 ± 0.046 | 2.23 ± 0.078 | 2.27 ± 0.041
23 | LAEEVVDNIVNKYQYSL [SRP68] | 3.09 ± 0.069 | 2.98 ± 0.069 | 2.82 ± 0.056 | 2.92 ± 0.046
24 | EQQKGQQTAQTQLEQQR [SNF5] | 3.33 ± 0.11 | 3.4 ± 0.088 | 3.22 ± 0.079 | 3.1 ± 0.053
25 | INELVLENFKSYAGKQV [SMC4] | 2.69 ± 0.075 | 2.75 ± 0.057 | 2.39 ± 0.079 | 2.74 ± 0.049
26 | GESTVESEKLVTPEDVM [RPC82] | 3.15 ± 0.09 | 3.25 ± 0.12 | 3.15 ± 0.11 | –
27 | ITHPGKMELVYVSDSDD [SIR4] | 3.24 ± 0.077 | 3.34 ± 0.075 | 3.31 ± 0.085 | 3.25 ± 0.073

Row | Sequence | protein stability index (doa10∆) | protein stability index (pdr5∆) | protein stability index (san1∆) | protein stability index (ubr1∆)
28 | AQGVAVQLKRQPAQPRE [RPL21A] | 1.66 ± 0.088 | 1.22 ± 0.081 | 1.61 ± 0.084 | 1.88 ± 0.07
29 | SAQAETEALLLEHDVEY [DIS3] | 3.19 ± 0.087 | 3.22 ± 0.098 | 3.3 ± 0.095 | 3.15 ± 0.066
30 | MNGNTNANTVFAGSNNQ [YOR098C/NUP1] | 2.63 ± 0.12 | 3.27 ± 0.12 | 3.31 ± 0.16 | 3.26 ± 0.085
31 | QQQQQQQQRRQLTPQQQ [GAL11] | 2.764 ± 0.025 | 2.826 ± 0.025 | 2.877 ± 0.02 | 2.833 ± 0.022
32 | RAVKEIKKFAKLHMGTE [RPL31B] | 2.95 ± 0.071 | 2.94 ± 0.13 | 3.08 ± 0.08 | 2.61 ± 0.086
33 | SRPEYSCTFWSDKESNA [YJL039C/NUP192] | 2.08 ± 0.063 | 2.5 ± 0.061 | 2.51 ± 0.071 | 2.57 ± 0.072
34 | LHVLPTLNSRALSGLYY [SNM1] | 2.45 ± 0.052 | 2.45 ± 0.05 | 2.12 ± 0.065 | 2.31 ± 0.042
35 | RESLIMLLEEQLEYKRG [MED7] | 2.51 ± 0.08 | 2.77 ± 0.071 | 2.42 ± 0.091 | 2.75 ± 0.057
36 | EFNGFSLYQVDPSGSYF [PRE8] | 2.19 ± 0.057 | 2.05 ± 0.08 | 2.1 ± 0.15 | 2.43 ± 0.077
37 | KLITTYISLLKLQGLYE [YDL116W/NUP84] | 2.23 ± 0.059 | 1.82 ± 0.061 | 1.66 ± 0.072 | 1.72 ± 0.052
38 | YDGDTVTFSPTGRLFQV [PRE5] | 2.96 ± 0.089 | 2.98 ± 0.12 | 2.94 ± 0.14 | 3.08 ± 0.061
39 | SFKKIIKFLLTFIDKER [YCS4] | 1.16 ± 0.065 | 1.29 ± 0.11 | 1.19 ± 0.14 | 1.17 ± 0.066
40 | MVLRNVMEYDVKFYEIF [SRB8] | 1.88 ± 0.081 | 2 ± 0.099 | 1.62 ± 0.099 | 2.1 ± 0.067
41 | MHALKNRSEQNGQEQQG [RGR1] | – | 3.06 ± 0.21 | – | 3.06 ± 0.21
42 | GWKPLRYLDNLKQEIDR [SNU114] | – | – | – | 3.15 ± 0.13
43 | VNAPLPTPFKVDDNVDF [RPN2] | 2.91 ± 0.077 | 2.75 ± 0.051 | 2.74 ± 0.08 | 2.96 ± 0.086
44 | AIKKSSMKMELLKKELL [SMC2] | 2.89 ± 0.17 | 2.19 ± 0.095 | 2.78 ± 0.2 | 2.13 ± 0.081
45 | AVSIETALEHKVVNGNS [FAS2] | 2.14 ± 0.18 | 1.37 ± 0.1 | 1.34 ± 0.12 | 1.4 ± 0.051
46 | FVRQAAMIALSMILIQQ [RPN2] | 1.35 ± 0.083 | 1.75 ± 0.17 | 1.48 ± 0.19 | 1.82 ± 0.14
47 | KEELLRDGVLTVTLNKN [RRP45] | 1.78 ± 0.054 | 2.11 ± 0.06 | 2.21 ± 0.084 | 2.06 ± 0.048
48 | MSVQDTKAVEFSMGHIR [MED4] | 3.24 ± 0.11 | 3.37 ± 0.093 | 3.22 ± 0.069 | 2.9 ± 0.088
49 | NRKVLQALEKIGIVEIS [RPS19A] | 2.34 ± 0.1 | 2.27 ± 0.1 | 2.24 ± 0.074 | 2.31 ± 0.07
50 | KNKYLKDVLAQTSVTTN [SWP82] | 2.5 ± 0.065 | 2.5 ± 0.06 | 2.71 ± 0.098 | 2.37 ± 0.044
51 | YTSIVQCCEFMTMLTPN [YML103C/NUP188] | 2.13 ± 0.051 | 2.03 ± 0.05 | 1.95 ± 0.062 | 2 ± 0.044
52 | VFYAPNVKNYSTTQEIL [RPC34] | 2.4 ± 0.1 | 1.97 ± 0.071 | 3.02 ± 0.082 | 2.06 ± 0.048
53 | KSFTNDKIPLNYAMTRN [SRB5] | 2.8 ± 0.13 | 2.55 ± 0.1 | 2.45 ± 0.06 | 2.67 ± 0.069
54 | LLIISCIIFITFEFINI [YML031W/NDC1] | 1.29 ± 0.038 | 1.43 ± 0.038 | 1.28 ± 0.079 | 1.28 ± 0.029
